Data on 6 substances can be found in US20180312587A1.

For assay [1], the target named is human SIRPα variant 1 (human) (UniProt P78324). Nature of the assay: CELISA, CHO-K1 transfectants.
Assay [2] addresses hSIRPαV1(P74A) (human) (UniProt P78324). Briefly: CELISA, CHO-K1 transfectants.
Assay [3] has as its target human SIRPα variant 2 (human) (UniProt P78324). Nature of the assay: CELISA, CHO-K1 transfectants; extrapolated.
In assay [4] the target is human SIRPα variant 1 (human) (UniProt P78324). Nature of the assay: CELISA, CHO-K1 transfectants; extrapolated.
Assay [5] deals with human SIRPβ1 (human) (UniProt O00241). Nature of the assay: CELISA, CHO-K1 transfectants.
Chain of human SIRPβ1 (human) (O00241 30-398 limits assumed): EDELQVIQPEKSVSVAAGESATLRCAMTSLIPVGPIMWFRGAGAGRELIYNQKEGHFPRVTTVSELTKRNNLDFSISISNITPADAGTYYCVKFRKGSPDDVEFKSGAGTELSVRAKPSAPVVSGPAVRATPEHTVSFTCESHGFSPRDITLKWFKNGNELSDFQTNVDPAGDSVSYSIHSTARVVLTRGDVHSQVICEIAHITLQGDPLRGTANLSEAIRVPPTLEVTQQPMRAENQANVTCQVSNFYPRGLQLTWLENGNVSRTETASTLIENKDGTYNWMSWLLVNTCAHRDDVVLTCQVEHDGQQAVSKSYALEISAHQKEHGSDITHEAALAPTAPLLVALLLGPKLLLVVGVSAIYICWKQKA
Assay [6] addresses hSIRPβ1 transcript variant 3/hSIRPβL (human) (UniProt Q5TFQ8). Briefly: CELISA, CHO-K1 transfectants; extrapolated.
Assay [7] deals with human SIRPγ (human) (UniProt Q9P1W8). Briefly: CELISA, CHO-K1 transfectants; extrapolated.
Chain of human SIRPγ (human) (Q9P1W8 29-387 limits assumed): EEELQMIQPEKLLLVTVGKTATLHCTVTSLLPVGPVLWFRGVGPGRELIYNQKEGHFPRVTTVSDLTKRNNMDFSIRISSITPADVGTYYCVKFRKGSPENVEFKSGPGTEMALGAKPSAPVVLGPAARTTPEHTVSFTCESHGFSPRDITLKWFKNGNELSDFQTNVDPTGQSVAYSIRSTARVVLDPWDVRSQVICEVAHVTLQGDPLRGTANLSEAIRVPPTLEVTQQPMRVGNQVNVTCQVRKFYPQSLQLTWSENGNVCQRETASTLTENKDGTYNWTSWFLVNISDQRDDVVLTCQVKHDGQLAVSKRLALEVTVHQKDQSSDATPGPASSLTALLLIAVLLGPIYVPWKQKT
Assay [8] addresses human SIRPβ1 (human) (UniProt O00241). Briefly: CELISA, CHO-K1 transfectants; extrapolated.
Assay [9] deals with hSIRPαV5 (NA18502_V5) (human) (UniProt P78324). Nature of the assay: CELISA, CHO-K1 transfectants; average of two experiments.
In assay [10] the target is hSIRPαV4 (NA11832_V4) (human) (UniProt P78324). The assay is described as above.
Chain of hSIRPαV4 (NA11832_V4) (human) (P78324 other isoform, or with tags, fused parts or gaps limits assumed): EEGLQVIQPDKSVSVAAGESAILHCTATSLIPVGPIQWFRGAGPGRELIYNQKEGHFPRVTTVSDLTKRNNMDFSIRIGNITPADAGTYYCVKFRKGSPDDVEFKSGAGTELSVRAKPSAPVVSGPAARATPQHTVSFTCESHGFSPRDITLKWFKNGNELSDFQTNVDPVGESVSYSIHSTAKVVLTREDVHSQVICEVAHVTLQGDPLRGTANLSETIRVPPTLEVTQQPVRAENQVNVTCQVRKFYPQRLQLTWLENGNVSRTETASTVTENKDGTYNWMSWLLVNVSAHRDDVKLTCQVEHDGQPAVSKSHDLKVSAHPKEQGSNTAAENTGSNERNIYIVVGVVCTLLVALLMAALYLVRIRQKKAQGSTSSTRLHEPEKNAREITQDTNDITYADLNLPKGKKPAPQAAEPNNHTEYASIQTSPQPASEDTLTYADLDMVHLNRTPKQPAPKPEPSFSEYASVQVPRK
The target in assay [11] is human SIRPα variant 2 (human) (UniProt P78324). Described as above.
Chain of human SIRPα variant 2 (human) (P78324 other isoform, or with tags, fused parts or gaps mutant limits assumed): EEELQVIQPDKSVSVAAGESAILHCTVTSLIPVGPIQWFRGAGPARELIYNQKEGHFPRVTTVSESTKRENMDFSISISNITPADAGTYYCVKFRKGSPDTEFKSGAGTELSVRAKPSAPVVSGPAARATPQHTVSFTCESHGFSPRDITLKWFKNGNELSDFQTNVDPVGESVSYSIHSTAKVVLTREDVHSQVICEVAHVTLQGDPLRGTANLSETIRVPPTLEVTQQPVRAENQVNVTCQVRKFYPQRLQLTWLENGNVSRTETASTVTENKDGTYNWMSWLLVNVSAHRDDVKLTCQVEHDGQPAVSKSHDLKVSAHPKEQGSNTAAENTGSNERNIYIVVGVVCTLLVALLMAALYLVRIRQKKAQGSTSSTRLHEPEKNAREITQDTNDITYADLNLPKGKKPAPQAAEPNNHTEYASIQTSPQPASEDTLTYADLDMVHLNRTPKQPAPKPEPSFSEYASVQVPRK
For assay [12], the target named is hSIRPαV3 (NA07056_V3) (human) (UniProt P78324). The assay is described as above.
For assay [13], the target named is human SIRPα variant 1 (human) (UniProt P78324). The description is as above.
In assay [14] the target is hSIRPαV8 (NA18570_V8) (human) (UniProt P78324). The assay is described as above.
Chain of hSIRPαV8 (NA18570_V8) (human) (P78324 other isoform, or with tags, fused parts or gaps limits assumed): as the sequence (P78324 other isoform, or with tags, fused parts or gaps mutant limits assumed) above, with S14L, S20T, I22T, H24R, V27A counted along it
Assay [15] concerns the target hSIRPαV6 (NA18507_V6) (human) (UniProt P78324). The description is as above.
Assay [16] has as its target hSIRPαV9 (NA18943_V9) (human) (UniProt P78324). Described as above.
The target of assay [17] is human SIRPα variant 2 (human) (UniProt P78324). Briefly: CELISA, CHO-K1 transfectants, domain exchange study.
Assay [18] deals with hSIRPα-VαC1αC2β (human) (UniProt P78324). Described as above.
Chain of hSIRPα-VαC1αC2β (human) (P78324 other isoform, or with tags, fused parts or gaps limits assumed): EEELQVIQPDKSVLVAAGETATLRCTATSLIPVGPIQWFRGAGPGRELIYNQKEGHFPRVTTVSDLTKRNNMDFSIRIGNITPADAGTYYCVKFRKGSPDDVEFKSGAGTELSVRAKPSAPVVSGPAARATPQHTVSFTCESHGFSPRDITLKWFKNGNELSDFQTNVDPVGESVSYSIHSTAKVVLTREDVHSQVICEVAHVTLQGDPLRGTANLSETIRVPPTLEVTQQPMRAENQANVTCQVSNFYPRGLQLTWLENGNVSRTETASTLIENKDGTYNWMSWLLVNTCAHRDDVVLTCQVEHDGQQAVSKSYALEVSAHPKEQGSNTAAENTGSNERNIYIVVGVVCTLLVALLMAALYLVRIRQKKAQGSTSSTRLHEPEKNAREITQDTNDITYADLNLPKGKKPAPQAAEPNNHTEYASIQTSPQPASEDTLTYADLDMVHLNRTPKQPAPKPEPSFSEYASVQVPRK
Assay [19] addresses human SIRPα variant 1 (human) (UniProt P78324). Described as above.
In assay [20] the target is human SIRPβ1 (human) (UniProt O00241). The description is as above.
For assay [21], the target named is hSIRPα-VαC1βC2α (human) (UniProt P78324). The description is as above.
The target in assay [22] is hSIRPα-VβC1αC2α (human) (UniProt P78324). Described as above.
Assay [23] concerns the target human SIRPα variant 2 (human) (UniProt P78324). The assay is described as above. This is another data set of the same source.
In assay [24] the target is hSIRP-VγC1βC2β (human) (UniProt O00241). The description is as above.
Chain of hSIRP-VγC1βC2β (human) (O00241 other isoform, or with tags, fused parts or gaps limits assumed): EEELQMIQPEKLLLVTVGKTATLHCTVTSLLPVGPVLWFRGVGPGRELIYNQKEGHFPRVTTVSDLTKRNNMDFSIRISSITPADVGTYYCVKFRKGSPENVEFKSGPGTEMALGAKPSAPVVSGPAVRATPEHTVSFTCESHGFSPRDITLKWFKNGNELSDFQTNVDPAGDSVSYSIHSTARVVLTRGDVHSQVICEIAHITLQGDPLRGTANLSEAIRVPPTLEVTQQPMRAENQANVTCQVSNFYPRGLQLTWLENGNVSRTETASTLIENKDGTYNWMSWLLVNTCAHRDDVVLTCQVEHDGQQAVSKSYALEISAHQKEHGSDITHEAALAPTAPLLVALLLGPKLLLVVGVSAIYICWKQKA
Assay [25] deals with human SIRPα variant 1 (human) (UniProt P78324). The assay is described as above. This is another data set of the same source.
The target in assay [26] is human SIRPβ1 (human) (UniProt O00241). The assay is described as above. The source holds these as a separate data set.
Assay [27] concerns the target hSIRP-VβC1γC2β (human) (UniProt O00241). The assay is described as above.
For assay [28], the target named is hSIRP-VβC1βC2γ (human) (UniProt O00241). Described as above.
Chain of hSIRP-VβC1βC2γ (human) (O00241 other isoform, or with tags, fused parts or gaps limits assumed): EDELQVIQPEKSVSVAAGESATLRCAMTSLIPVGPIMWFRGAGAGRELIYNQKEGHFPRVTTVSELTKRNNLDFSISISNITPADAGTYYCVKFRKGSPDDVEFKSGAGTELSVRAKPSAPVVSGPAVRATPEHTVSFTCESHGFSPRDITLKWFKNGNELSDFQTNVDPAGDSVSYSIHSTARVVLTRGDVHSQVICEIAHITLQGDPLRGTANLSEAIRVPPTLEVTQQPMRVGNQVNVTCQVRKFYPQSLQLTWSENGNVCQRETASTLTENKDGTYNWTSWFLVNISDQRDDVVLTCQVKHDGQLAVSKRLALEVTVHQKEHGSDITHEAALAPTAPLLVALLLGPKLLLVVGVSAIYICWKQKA
Assay [29] addresses human SIRPα variant 1 (human) (UniProt P78324). Nature of the assay: CELISA, CHO-K1 transfectants, point mutant study.
Assay [30] deals with hSIRPαV1(P74A) (human) (UniProt P78324). Nature of the assay: CELISA, CHO-K1 transfectants, point mutant study.
Chain of hSIRPαV1(P74A) (human) (P78324 31-504 P74A limits assumed): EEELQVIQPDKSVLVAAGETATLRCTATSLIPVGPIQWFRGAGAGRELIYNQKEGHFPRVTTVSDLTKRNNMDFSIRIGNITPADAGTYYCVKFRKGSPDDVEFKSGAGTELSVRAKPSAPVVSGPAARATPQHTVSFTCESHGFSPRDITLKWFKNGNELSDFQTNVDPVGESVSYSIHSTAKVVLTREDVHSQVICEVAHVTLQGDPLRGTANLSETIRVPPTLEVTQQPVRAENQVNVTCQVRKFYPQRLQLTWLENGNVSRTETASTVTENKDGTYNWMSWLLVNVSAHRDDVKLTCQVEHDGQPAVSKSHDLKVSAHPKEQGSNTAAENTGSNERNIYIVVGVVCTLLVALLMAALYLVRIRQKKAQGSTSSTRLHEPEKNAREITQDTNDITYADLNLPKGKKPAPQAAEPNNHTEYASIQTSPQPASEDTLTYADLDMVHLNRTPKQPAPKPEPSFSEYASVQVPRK
For assay [31], the target named is human SIRPα variant 2 (human) (UniProt P78324). Nature of the assay: CELISA, CHO-K1 transfectants; n = 1.
Assay [32] concerns the target human SIRPγ (human) (UniProt Q9P1W8). Nature of the assay: CELISA, CHO-K1 transfectants; n = 1.
Assay [33] deals with human SIRPα variant 1 (human) (UniProt P78324). Briefly: CELISA, CHO-K1 transfectants; n = 1.
Assay [34] concerns the target human SIRPβ1 (human) (UniProt O00241). Briefly: CELISA, CHO-K1 transfectants; n = 1.
The target in assay [35] is hSIRPβ1 transcript variant 3/hSIRPβL (human) (UniProt Q5TFQ8). Nature of the assay: CELISA, CHO-K1 transfectants.
Chain of hSIRPβ1 transcript variant 3/hSIRPβL (human) (Q5TFQ8 30-398 limits assumed, change not shown): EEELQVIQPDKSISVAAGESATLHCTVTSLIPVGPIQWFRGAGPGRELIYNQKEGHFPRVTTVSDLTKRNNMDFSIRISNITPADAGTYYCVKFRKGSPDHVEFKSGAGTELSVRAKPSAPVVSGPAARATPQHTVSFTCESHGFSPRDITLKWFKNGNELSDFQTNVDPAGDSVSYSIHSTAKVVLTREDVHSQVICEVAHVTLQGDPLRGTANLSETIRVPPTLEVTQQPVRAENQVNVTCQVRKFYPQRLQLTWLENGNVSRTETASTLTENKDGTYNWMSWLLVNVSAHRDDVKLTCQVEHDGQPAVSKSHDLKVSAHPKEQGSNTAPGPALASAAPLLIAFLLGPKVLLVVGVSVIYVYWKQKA
Assay [36] has as its target human SIRPα variant 2 (human) (UniProt P78324). Briefly: CELISA, CHO-K1 transfectants.
For assay [37], the target named is human SIRPγ (human) (UniProt Q9P1W8). Nature of the assay: CELISA, CHO-K1 transfectants.
Assay [38] concerns the target human SIRPα variant 1 (human) (UniProt P78324). Nature of the assay: CELISA, CHO-K1 transfectants. This is another data set of the same source.
The target in assay [39] is human SIRPβ1 (human) (UniProt O00241). Nature of the assay: CELISA, CHO-K1 transfectants. The source holds these as a separate data set.
In assay [40] the target is human SIRPα variant 1 (human) (UniProt P78324). Nature of the assay: CELISA, CHO-K1 transfectants, point mutant study. This is another data set of the same source.
Assay [41] has as its target human SIRPβ1 (human) (UniProt O00241). Briefly: CELISA, CHO-K1 transfectants, point mutant study.
For assay [42], the target named is hSIRPαV1(P74A) (human) (UniProt P78324). Nature of the assay: CELISA, CHO-K1 transfectants, point mutant study. The source holds these as a separate data set.

Chain of human SIRPα variant 1 (human) (P78324 31-504 limits assumed, stated change not applied): as the sequence (P78324 31-504 P74A limits assumed) above, with A44P counted along it

Take anti-hSIRPα (clone D6I3M) (antibody): the EC50 in assay [1] is more than 6.41 nM; in [2], more than 122 nM; in assay [3] it was 8.76 nM; in assay [4] it was 18.7 nM.

anti-hSIRPα (clone EPR16264) (antibody): the concentration giving a half-maximal response (EC50) was more than 1.17 nM in [1], more than 2 nM in [2] and 2.45 nM in assay [3].

On to anti-hSIRPα (clone REA144) (antibody), for which the EC50 in assay [1] was more than 3.66 nM; in assay [5], more than 3.08 nM; in assay [2], more than 4.79 nM; in assay [6], 2.15 nM; in [3], 3.27 nM; in assay [7] it was 3.21 nM. Also, the EC50 was 5.24 nM in assay [4] and 4.53 nM in assay [8].

Regarding anti-hSIRPα (clone SE5A5) (antibody), the EC50 turned out to be 0.276 nM in assay [9]; 0.256 nM in assay [10]; 0.2 nM in assay [11]; 0.226 nM in assay [12]; 0.327 nM in assay [13]; 0.3 nM in assay [14]. Moreover, the EC50 is 0.098 nM in assay [15]; 0.26 nM in assay [16]; 0.084 nM in assay [17]; 0.127 nM in assay [18]; 0.117 nM in [19]; 0.18 nM in assay [20]. Further, the EC50 in [21] was 0.135 nM; in assay [22], 0.121 nM; in [23], 0.224 nM; in assay [24], 0.287 nM; in [25] it was 0.35 nM; in assay [26], 0.249 nM. The EC50 in assay [27] worked out at 0.309 nM; in [28], 0.231 nM; in [29], 0.163 nM; in assay [30], 0.149 nM; in assay [31], 0.2 nM; in assay [32], 0.168 nM. Also, the EC50 in assay [33] came to 0.304 nM; in [34], 0.192 nM; in assay [35], 0.122 nM; in assay [36], 0.186 nM; in [37], 0.2 nM; in assay [38] it was 0.372 nM. The EC50 in assay [39] was 0.185 nM; in [1] it was 0.156 nM; in assay [5], 0.105 nM; in assay [2], 0.207 nM; in [40], 0.164 nM; in [41], 0.156 nM. For the same substance, the EC50 in [42] turned out to be 0.15 nM.

Turning to anti-hSIRPα (clone SE7C2) (antibody), the concentration for a half-maximal effect (EC50) is 0.3 nM in assay [36]; 1.52 nM in assay [37]; more than 7.01 nM in [1]; more than 6.14 nM in [2]; 26.8 nM in assay [6]; 1.27 nM in assay [4].

With anti-hSIRPγ (clone LSB2.20) (antibody), the EC50 in assay [32] worked out at 0.265 nM.
